Assays:
[1] = molecular target: T1, human pIgR extracellular domain (ECD) (human, UniProt P01833 19-638); assay: BLI (Octet RED384), 1:1 fit, 25 C, PBS; column kdis
T1 construct: also called hpIgR ECD

[2] = molecular target: T1, human pIgR extracellular domain (ECD); assay: BLI (Octet), VHH-mono-Fc and hpIgR ectodomain
hpIgR_D2-D3 [3] = molecular target: T2, hpIgR_D2-D3; assay: ECL (MSD) heat map, HIS-tagged construct captured via anti-HIS, anti-human-Fc detection
T2 construct: HIS-tagged construct from HEK293 cells; also called human pIgR extracellular domain 2-domain 3 (D2-D3); hD2-D3
T2 HIS-tagged domain construct: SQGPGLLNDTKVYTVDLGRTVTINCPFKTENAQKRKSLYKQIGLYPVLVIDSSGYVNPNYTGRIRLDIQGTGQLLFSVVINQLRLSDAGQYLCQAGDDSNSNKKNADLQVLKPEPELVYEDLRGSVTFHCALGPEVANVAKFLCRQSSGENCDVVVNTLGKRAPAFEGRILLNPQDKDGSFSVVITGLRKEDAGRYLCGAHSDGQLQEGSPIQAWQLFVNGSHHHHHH

[4] = molecular target: T3, human pIgR extracellular domain 1-domain 2 (D1-D2) (human, UniProt P01833 19-240); assay: as above
T3 construct: HIS-tagged construct made in HEK293 cells

[5] = molecular target: T1, human pIgR extracellular domain (ECD); assay: BLI; summary table, repeats Table 1
[6] = molecular target: T1, human pIgR extracellular domain (ECD); assay: ECL (MSD), hpIgR-ECD coated, anti-VHH detection
[7] = molecular target: T4, human pIgR, full-length, on cells (human, UniProt P01833 19-764); assay: flow cytometry on MDCK-hpIgR cells; summary table, repeats Table 1
T4 construct: whole, on cells; Used for the flow cytometry EC50 values (MDCK-hpIgR) and for the transcytosis read-outs; also called hpIgR; cell-surface hpIgR
Method: (§1) Flow Cytometry was performed as follows. To test whether VHH-mono-Fc molecules recognize cell-surface hpIgR, Madin-Darby canine kidney (MDCK) cells engineered to express full-length hpIgR were used. Cells were cultured in Dulbecco's modified Eagle's medium containing 10% fetal calf serum at 37° C. with 5% CO₂. Cells were split into equal fractions (≈70,000 cells) and incubated with increasing concentrations of VHH-mono-Fc molecules for 30 min at 4 C. […] Cells were washed twice with cold staining buffer, resuspended in running buffer and analyzed with an iQue Screener (IntelliCyt Corporation). Binding was assessed by RL1 (A647) Geomeans from the live cell population and EC50 was calculated by fitting log VHH concentration versus MFI in Prism (Graphpad).

[8] = molecular target: T4, human pIgR, full-length, on cells; assay: cell-based or functional assay
[9] = molecular target: T4, human pIgR, full-length, on cells; assay: cell-based or functional assay; remark: listed apart in the source
[10] = molecular target: T5, human pIgR extracellular domain 2 (D2) (human, UniProt P01833 128-242); assay: ECL (MSD) heat map, HIS-tagged construct captured via anti-HIS, anti-human-Fc detection;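 note: VHH-mono-Fc molecules tested at 100 µg/ml for 2 h on captured His-tagged pIgR constructs (10 µg/ml), read-out as electrochemiluminescence units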
T5 construct: HIS-tagged construct made in HEK293 cells; also called hpIgR domain 2
Method: (§2) A meso-scale discovery (MSD) platform was used for conducting epitope mapping and epitope burial studies. To test the binding of VHH-mono-Fc molecules to purified pIgR protein constructs, Streptavidin MSD plates were coated with a biotinylated anti-HIS antibody (2 μg/ml in PBS) for 1 hour at RT with 1000 rpm, washed 3× with PBT (PBS+0.1% Tween-20), incubated with blocking buffer for 1 hour at RT, incubated with His-tagged pIgR proteins (10 μg/ml in PBS) for 2 hours at RT with 1000 rpm, washed 3× with PBT, incubated with VHH-mono-Fc molecules (100 μg/ml in PBS) for 2 hours at RT with 1000 rpm, washed 3× with PBT, incubated with ruthenylated-anti-human-Fc antibody (2 μg/ml in PBS) for 1 hour at RT with 1000 rpm, washed 3× with PBT and read plates in 40 ul reading buffer using the MSD imager. ECLU values were plotted as a heatmap.
(§3) Binding of VHH-mFc molecules were tested to immobilized pIgR constructs by the electrochemiluminescence method.

[11] = molecular target: T6, human pIgR extracellular domain 1 (D1) (human, UniProt P01833 19-127); assay: as above
T6 construct: HIS-tagged construct made in HEK293 cells; also called hpIgR domain-1
Method: as §2, §3

hpIgR_D3 [12] = molecular target: T7, hpIgR_D3; assay: as above
T7 construct: HIS-tagged construct from HEK293 cells; also called human pIgR extracellular domain 3 (D3); hD3
Method: as §2, §3
T7 HIS-tagged domain construct: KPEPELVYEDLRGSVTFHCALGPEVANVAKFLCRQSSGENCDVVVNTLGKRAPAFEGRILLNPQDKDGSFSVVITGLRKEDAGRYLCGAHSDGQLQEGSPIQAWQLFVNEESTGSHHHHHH

[13] = molecular target: T8, human pIgR extracellular domain 5 (D5) (human, UniProt P01833 460-565); assay: as above
T8 construct: HIS-tagged construct made in HEK293 cells; also called hpIgR domain 5
Method: as §2, §3

[14] = molecular target: T9, human pIgR extracellular domain 4-domain 5 (D4-D5) (human, UniProt P01833 350-565); assay: BLI (Octet RED384), 1:1 fit, 25 C, PBS; antigen printed 'hD4 D5'
T9 construct: HIS-tagged construct made in HEK293 cells; also called hpIgR domains 4-5
T9 chain: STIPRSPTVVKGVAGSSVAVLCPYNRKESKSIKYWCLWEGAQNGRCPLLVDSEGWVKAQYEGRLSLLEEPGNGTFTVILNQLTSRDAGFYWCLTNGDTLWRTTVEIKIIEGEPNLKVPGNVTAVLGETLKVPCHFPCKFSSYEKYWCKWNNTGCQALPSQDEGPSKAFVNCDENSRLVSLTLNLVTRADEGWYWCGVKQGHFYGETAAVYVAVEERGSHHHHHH
Method: (§4) Bio-layer Interferometry was performed as follows. […] Data were collected with Octet Data Acquisition version 7.1.0.87 (ForteBio) and analyzed using Octet Data Analysis version 7.1 (ForteBio). To measure binding kinetics between VHH-mono-Fc molecules and HIS-tagged pIgR proteins, VHH-mono-Fc was immobilized on amine-reactive generation-2 (ARG2) biosensors according to manufacturer's instructions and increasing concentrations of pIgR proteins were exposed to sensor-immobilized VHH. In some cases, HIS-tagged pIgR proteins were immobilized on anti-HIS biosensors and exposed to increasing concentrations of VHH-mono-Fc molecules. Association and dissociation rates were measured by the shift in wavelength (nm). […] All reactions were performed at 25° C. in PBS.

[15] = molecular target: T1, human pIgR extracellular domain (ECD); assay: BLI; summary table, repeats Table 1; remark: listed apart in the source
[16] = molecular target: T9, human pIgR extracellular domain …; assay: BLI (Octet RED384), 1:1 fit, 25 C, PBS; column kdis; antigen printed 'hD4 D5'
Method: as §4

[17] = molecular target: T1, human pIgR extracellular domain (ECD); assay: BLI (Octet RED384), 1:1 fit, 25 C, PBS
[18] = molecular target: T4, human pIgR, full-length, on cells; assay: flow cytometry on MDCK-hpIgR cells
Method: as §1

[19] = molecular target: T4, human pIgR, full-length, on cells; assay: flow cytometry on MDCK-hpIgR cells; summary table, repeats Table 1; remark: listed apart in the source
Method: as §1

[20] = molecular target: T1, human pIgR extracellular domain (ECD); assay: ECL (MSD), anti-VHH detection against anti-Fc detection
Method: To check whether VHH recognizes a buried epitope on pIgR, EC₅₀ values were measured for VHH-mono-Fc molecules binding to hpIgR-ECD protein by electrochemiluminescence using two different detection antibodies, an anti-Fc antibody and an anti-VHH antibody. pIgR ECD (10 μg/ml in PBS) was coated on high-bind MSD plates for 2 hours at RT with 1000 rpm, incubated with blocking buffer for 1 hour at RT, incubated with VHH-mono-Fc molecules (increasing concentrations in PBS) for 2 hours at RT with 1000 rpm, washed 3× with PBT, incubated with ruthenylated secondary antibody (2 μg/ml in PBS) for 1 hour at RT with 1000 rpm, washed 3× with PBT and read plates in 40 ul reading buffer using the MSD imager. EC50 was calculated by fitting log VHH concentration versus log ECLU in Prism (Graphpad). The increase in EC₅₀ (>50-fold) due to anti-VHH detection was used as a measure to determine whether VHH recognized buried epitope on pIgR.

[21] = molecular target: T1, human pIgR extracellular domain (ECD); assay: ECL (MSD), hpIgR-ECD coated, anti-Fc detection
[22] = molecular target: T9, human pIgR extracellular domain …; assay: BLI: IgA binding to immobilized HIS-tagged hD4-D5
[23] = molecular target: T9, human pIgR extracellular domain …; assay: BLI: IgA binding to immobilized HIS-tagged hD4-D5; sheet says 'IgA binds hD4-D5 weakly'
hpIgR_D2-D3 [24] = molecular target: T2, hpIgR_D2-D3; assay: BLI response heat map (0-1.0 nm), HIS-tagged pIgR construct immobilized
[25] = molecular target: T5, human pIgR extracellular domain 2 (D2); assay: as above
[26] = molecular target: T10, hpIgR domain-1 with teleost fish CDR1 (hD1 tCDR1) (human, UniProt P01833 19-127, limits assumed); assay: as above
T10 construct: CDR-swapped hpIgR domain-1 mutant, HIS-tagged, made in HEK293 cells; not shown: HIS tag

[27] = molecular target: T11, hpIgR domain-1 with teleost fish CDR2 (hD1 tCDR2) (human, UniProt P01833 19-127, limits assumed); assay: as above
T11 construct: CDR-swapped hpIgR domain-1 mutant, HIS-tagged, made in HEK293 cells; not shown: HIS tag
T11 chain: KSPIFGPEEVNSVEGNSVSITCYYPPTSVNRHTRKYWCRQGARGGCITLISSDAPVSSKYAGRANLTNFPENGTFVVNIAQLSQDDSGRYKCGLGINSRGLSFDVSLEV

hpIgR_D3 [28] = molecular target: T7, hpIgR_D3; assay: as above
hD3-D4 = molecular target: T12, hD3-D4 (human, UniProt P01833); assay: as above
T12 construct: HIS-tagged two-domain construct; also called human pIgR extracellular domain 3-domain 4 (D3-D4)

[29] = molecular target: T8, human pIgR extracellular domain 5 (D5); assay: as above
[30] = molecular target: T9, human pIgR extracellular domain …; assay: ECL (MSD) heat map in ECLU: HIS-tagged construct captured via anti-HIS, VHH-mono-Fc 100 ug/ml, anti-human-Fc detection
Method: The Electrochemiluminescence assay was performed as follows. A meso-scale discovery (MSD) platform was used for conducting epitope mapping and epitope burial studies. To test the binding of VHH-mono-Fc molecules to purified pIgR protein constructs, Streptavidin MSD plates were coated with a biotinylated anti-HIS antibody (2 μg/ml in PBS) for 1 hour at RT with 1000 rpm, washed 3× with PBT (PBS+0.1% Tween-20), incubated with blocking buffer for 1 hour at RT, incubated with His-tagged pIgR proteins (10 μg/ml in PBS) for 2 hours at RT with 1000 rpm, washed 3× with PBT, incubated with VHH-mono-Fc molecules (100 μg/ml in PBS) for 2 hours at RT with 1000 rpm, washed 3× with PBT, incubated with ruthenylated-anti-human-Fc antibody (2 μg/ml in PBS) for 1 hour at RT with 1000 rpm, washed 3× with PBT and read plates in 40 ul reading buffer using the MSD imager. ECLU values were plotted as a heatmap.

T4 sequence (P01833 19-764): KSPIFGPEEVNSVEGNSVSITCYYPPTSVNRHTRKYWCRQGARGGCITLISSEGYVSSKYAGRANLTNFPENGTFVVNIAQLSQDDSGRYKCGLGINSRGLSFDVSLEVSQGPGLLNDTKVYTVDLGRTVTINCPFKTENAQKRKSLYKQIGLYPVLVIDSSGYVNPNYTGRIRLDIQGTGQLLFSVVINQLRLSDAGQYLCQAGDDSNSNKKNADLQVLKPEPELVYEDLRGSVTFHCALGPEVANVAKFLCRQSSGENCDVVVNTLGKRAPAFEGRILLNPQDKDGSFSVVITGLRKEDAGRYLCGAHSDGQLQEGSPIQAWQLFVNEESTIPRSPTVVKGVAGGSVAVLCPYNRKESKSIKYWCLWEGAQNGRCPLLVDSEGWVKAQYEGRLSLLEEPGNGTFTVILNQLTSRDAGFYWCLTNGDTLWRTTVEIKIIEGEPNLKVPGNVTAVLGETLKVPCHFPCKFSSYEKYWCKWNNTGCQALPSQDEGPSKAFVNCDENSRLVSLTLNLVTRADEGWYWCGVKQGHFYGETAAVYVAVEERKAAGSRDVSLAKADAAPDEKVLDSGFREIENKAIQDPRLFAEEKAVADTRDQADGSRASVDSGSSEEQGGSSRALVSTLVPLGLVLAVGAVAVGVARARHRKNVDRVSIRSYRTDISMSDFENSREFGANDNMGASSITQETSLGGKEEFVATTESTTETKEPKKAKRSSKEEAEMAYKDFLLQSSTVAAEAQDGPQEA
T1 sequence (P01833 other isoform, or with tags, fused parts or gaps): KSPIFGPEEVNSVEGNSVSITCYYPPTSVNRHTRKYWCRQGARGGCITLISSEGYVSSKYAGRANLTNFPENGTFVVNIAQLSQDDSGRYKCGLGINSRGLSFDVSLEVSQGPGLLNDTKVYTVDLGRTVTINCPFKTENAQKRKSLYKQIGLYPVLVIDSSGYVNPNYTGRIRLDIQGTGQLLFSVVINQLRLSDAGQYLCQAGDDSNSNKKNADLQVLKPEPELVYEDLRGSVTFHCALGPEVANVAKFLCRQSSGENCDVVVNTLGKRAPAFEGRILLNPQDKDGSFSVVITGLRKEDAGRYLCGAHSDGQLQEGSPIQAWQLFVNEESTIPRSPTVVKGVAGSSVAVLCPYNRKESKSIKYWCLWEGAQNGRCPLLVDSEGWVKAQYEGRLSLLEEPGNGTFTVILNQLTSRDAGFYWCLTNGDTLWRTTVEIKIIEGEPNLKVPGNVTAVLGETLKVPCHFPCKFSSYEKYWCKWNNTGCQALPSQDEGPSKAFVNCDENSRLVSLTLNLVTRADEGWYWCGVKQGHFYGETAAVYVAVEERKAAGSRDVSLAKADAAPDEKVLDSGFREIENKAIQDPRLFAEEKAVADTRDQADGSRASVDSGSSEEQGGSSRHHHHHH
T6 sequence (P01833 other isoform, or with tags, fused parts or gaps limits assumed): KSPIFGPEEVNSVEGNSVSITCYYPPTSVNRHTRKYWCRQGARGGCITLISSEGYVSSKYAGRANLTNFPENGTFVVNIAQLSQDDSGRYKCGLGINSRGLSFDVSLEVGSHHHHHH
T12 sequence (P01833 240-459 limits assumed): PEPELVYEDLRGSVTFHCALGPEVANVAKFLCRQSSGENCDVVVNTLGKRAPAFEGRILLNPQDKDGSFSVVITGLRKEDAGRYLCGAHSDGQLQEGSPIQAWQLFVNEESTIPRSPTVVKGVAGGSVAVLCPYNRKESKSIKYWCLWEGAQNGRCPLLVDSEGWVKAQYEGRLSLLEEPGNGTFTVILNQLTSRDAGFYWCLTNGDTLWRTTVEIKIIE
T3 sequence (P01833 other isoform, or with tags, fused parts or gaps limits assumed): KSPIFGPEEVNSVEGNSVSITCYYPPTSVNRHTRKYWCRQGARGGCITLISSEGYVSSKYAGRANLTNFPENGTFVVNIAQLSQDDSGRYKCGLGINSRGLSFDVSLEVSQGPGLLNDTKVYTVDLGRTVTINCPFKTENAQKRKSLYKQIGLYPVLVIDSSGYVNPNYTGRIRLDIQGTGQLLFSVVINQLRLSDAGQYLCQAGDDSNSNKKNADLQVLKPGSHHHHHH

B1: VHH5-linker-mono-Fc protein (Fc fusion)
chain: QVQLVESGGGLVQAGGSLRLSCAASGRTFSSYAMGWFRQAPGKEREFVAAITWNGGTTYYADSVKGRFTISRDNAKNTVYLQMNSLKPEDTAVYYCAADPFNQGYWGQGTQVTVSSEPKTPKPQPQPQLQPQPNPTTESKSPKSPAPELLGGPSVFLFPPKPKDTLMISRTPEVTCVVVDVSHEDPEVKFNWYVDGVEVHNAKTKPREEQYNSTYRVVSVLTVLHQDWLNGKEYKCKVSNKALPAPIEKTISKAKGQPREPQVYTKPPSREEMTKNQVSLSCLVKGFYPSDIAVEWESNGQPENNYKTTVPVLDSDGSFRLASYLTVDKSRWQQGNVFSCSVMHEALHNHYTQKSLSLSPGK
notes: made in CHO cells; also called VHH5-mono-Fc; hpIgR_175
koff [1]: 0.00145 s⁻¹
Kd [2]: 11 nM
binding result (hpIgR_D2-D3 [3]): no binding (tested: 100 ug/ml (single concentration))
binding result [4]: no binding (tested: 100 ug/ml (single concentration))
Kd [5]: 11 nM
EC50 [6]: 178 nM
EC50 [7]: 4.3 nM
For. Trans. (Fold Incr.) [8]: 8.9 fold
Rev. Trans (Fold Incr.) [8]: 2.1 fold
Transcytosis (Fold Incr.) [9]: 6.9 fold
binding result [10]: no binding (tested: 100 ug/ml (single concentration))
binding result [11]: no binding (tested: 100 ug/ml (single concentration))
binding result (hpIgR_D3 [12]): no binding (tested: 100 ug/ml (single concentration))
binding result [13]: no binding (tested: 100 ug/ml (single concentration))
Kd [14]: 11.6 nM
kon [14]: 111000 M⁻¹ s⁻¹
Kd [15]: 11 nM
koff [16]: 0.00128 s⁻¹
Kd [17]: 10 nM
kon [17]: 145000 M⁻¹ s⁻¹
EC50 [18]: 4.3 nM
EC50 [19]: 4.3 nM
Fold change in EC50 [20]: 592 fold
EC50 [21]: 0.3 nM

B2: recombinant dimeric IgA2 construct (antibody)
heavy: QVQLVQSGAEVKKPGSSVKVSCKSSGGTSNNYAISWVRQAPGQGLDWMGGISPIFGSTAYAQKFQGRVTISADIFSNTAYMELNSLTSEDTAVYFCARHGNYYYYSGMDVWGQGTTVTVSSASPTSPKVFPLSLDSTPQDGNVVVACLVQGFFPQEPLSVTWSESGQNVTARNFPPSQDASGDLYTTSSQLTLPATQCPDGKSVTCHVKHYTNPSQDVTVPCPVPPPPPCCHPRLSLHRPALEDLLLGSEANLTCTLTGLRDASGATFTWTPSSGKSAVQGPPERDLCGCYSVSSVLPGCAQPWNHGETFTCTAAHPELKTPLTANITKSGNTFRPEVHLLPPPSEELALNELVTLTCLARGFSPKDVLVRWLQGSQELPREKYLTWASRQEPSQGTTTFAVTSILRVAAEDWKKGDTFSCMVGHEALPLAFTQKTIDRLAGKPTHVNVSVVMAEVDGTCY
light: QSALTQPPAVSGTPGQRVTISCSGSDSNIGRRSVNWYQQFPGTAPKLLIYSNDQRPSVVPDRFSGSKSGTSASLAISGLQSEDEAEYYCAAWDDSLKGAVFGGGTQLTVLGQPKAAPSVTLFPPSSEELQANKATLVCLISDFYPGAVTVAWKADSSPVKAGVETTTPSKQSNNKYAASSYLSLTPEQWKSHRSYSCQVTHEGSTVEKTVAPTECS
chain: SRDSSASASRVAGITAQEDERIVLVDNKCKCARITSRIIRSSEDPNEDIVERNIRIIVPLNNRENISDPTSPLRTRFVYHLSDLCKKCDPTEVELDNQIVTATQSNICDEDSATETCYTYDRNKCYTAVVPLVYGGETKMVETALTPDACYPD
notes: No sentence says outright that they are the dIgA2 of the assays; also called dIgA2; dIgA
koff [22]: 0.0801 s⁻¹
kon [22]: 78400 M⁻¹ s⁻¹
Kd [23]: 1000 nM
binding result (hpIgR_D2-D3 [24]): no binding
binding result [25]: no binding
binding result [26]: no binding
binding result [27]: no binding
binding result (hpIgR_D3 [28]): no binding
binding result (hD3-D4): no binding
binding result [29]: no binding

B3: VHH7-linker-mono-Fc protein (Fc fusion)
chain: EVQVVESGGGLVQAGGSLRLACVASRSIGSINVMGWYRQAPGKQRDLVARITGGGSTHYAESVKGRFTISRDNAKNTVYLQMNSLEPEDTAVYYCASMVNPIITAWGTIGVREIPDYDYWGQGTQVTVSSEPKTPKPQPQPQLQPQPNPTTESKSPKSPAPELLGGPSVFLFPPKPKDTLMISRTPEVTCVVVDVSHEDPEVKFNWYVDGVEVHNAKTKPREEQYNSTYRVVSVLTVLHQDWLNGKEYKCKVSNKALPAPIEKTISKAKGQPREPQVYTKPPSREEMTKNQVSLSCLVKGFYPSDIAVEWESNGQPENNYKTTVPVLDSDGSFRLASYLTVDKSRWQQGNVFSCSVMHEALHNHYTQKSLSLSPGK
notes: made in CHO cells; also called VHH7-mono-Fc; hpIgR_198
Kd [2]: 521 nM
binding result (hpIgR_D2-D3 [3]): no binding (tested: 100 ug/ml (single concentration))
Kd [5]: 521 nM
EC50 [6]: 31.1 nM
EC50 [7]: 36.4 nM
For. Trans. (Fold Incr.) [8]: 1.9 fold
Rev. Trans (Fold Incr.) [8]: 3.3 fold
binding result [30]: binds
Transcytosis (Fold Incr.) [9]: 1.3 fold
binding result [10]: no binding (tested: 100 ug/ml (single concentration))
binding result [11]: no binding (tested: 100 ug/ml (single concentration))
binding result (hpIgR_D3 [12]): no binding (tested: 100 ug/ml (single concentration))
binding result [13]: no binding (tested: 100 ug/ml (single concentration))
Kd [15]: 521 nM
EC50 [18]: 36.4 nM
EC50 [19]: 36.4 nM
Fold change in EC50 [20]: 2.5 fold
EC50 [21]: 12.4 nM
